Literature values, collected in publication PMC10830413.
Where two headings read alike, the source gives them in different places.

Assays:
LPHN3 [1] = target: LPHN3 (UniProt Q9HAR2)
LPHN3 [2] = target: LPHN3 (UniProt Q9HAR2); remark: listed apart in the source

Sequence of UniProt Q9HAR2 (Q9HAR2 20-862): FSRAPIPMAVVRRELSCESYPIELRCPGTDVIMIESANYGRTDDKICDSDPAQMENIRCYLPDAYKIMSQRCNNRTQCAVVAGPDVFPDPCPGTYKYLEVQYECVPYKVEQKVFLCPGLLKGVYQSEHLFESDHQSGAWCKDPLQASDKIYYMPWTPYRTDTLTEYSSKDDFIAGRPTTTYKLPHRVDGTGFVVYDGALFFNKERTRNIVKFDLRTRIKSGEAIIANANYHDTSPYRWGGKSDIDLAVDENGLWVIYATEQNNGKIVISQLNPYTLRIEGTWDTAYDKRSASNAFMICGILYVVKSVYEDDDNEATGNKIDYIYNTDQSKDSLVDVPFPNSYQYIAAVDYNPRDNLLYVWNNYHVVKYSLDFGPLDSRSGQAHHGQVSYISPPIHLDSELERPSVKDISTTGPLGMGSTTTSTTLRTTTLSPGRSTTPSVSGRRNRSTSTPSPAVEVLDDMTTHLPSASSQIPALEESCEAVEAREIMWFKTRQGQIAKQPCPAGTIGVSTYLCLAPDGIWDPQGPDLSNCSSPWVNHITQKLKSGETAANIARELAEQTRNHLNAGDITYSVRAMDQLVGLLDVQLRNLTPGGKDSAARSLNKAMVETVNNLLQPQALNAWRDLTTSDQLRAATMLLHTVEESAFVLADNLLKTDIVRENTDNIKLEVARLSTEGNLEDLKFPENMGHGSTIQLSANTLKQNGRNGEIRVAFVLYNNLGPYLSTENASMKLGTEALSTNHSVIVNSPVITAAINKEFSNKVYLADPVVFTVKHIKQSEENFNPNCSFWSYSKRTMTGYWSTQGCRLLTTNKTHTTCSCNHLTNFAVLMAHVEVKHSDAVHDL

| Substance | Kd (LPHN3 [1]) [µM] | Kd (LPHN3 [2]) [µM] |
| --- | --- | --- |
| FLRT3 (from UniProt Q9NZU0) | 0.015 |  |
| TENM2 (from UniProt Q9NT68) |  | 0.5 |
